Laboratory results taken from publication PMC7088246.

Target: recombinant glycosylated HIV-1 IIIB gp120 (baculovirus) (HIV-1 IIIB) (UniProt P04578)
Assay: SPR

## His-tagged recombinant KAA-1 (natural protein)
  Ka: 1.48e+09 M⁻¹
  Kd: 0.677 nM
  kon: 871000 M⁻¹ s⁻¹

## recombinant KAA-1 (His tag removed by thrombin) (natural protein)
  Ka: 1.61e+09 M⁻¹
  Kd: 0.622 nM
  koff: 0.000529 s⁻¹
